In article PMC4065374:

Biological target: glycosylated Aeromonas caviae polar flagellin FlaA, FlaA (+pse) (Aeromonas caviae (endogenous in A. caviae Sch3N and its flaB mutant AAR27))
Assay: far-Western, overlay or dot blot; glycosylated and unglycosylated FlaA titrated across an SDS-PAGE gel, transferred to nitrocellulose, probed with a constant concentration of GST-FlaJ; αGST-HRP, densitometry, triplicate blots

B1: GST-tagged Aeromonas caviae flagellin-specific chaperone FlaJ (GST-FlaJ) (natural protein)
chain: MYKRNIKAYTAGNLAADLATADPHRVIQLMMQGCLERLAQAKGAIERNDMEAKSIAISKAQGLLHGLQDALDMSQGRMAEDLYGLYAYMDERVWDASLNRDTEPLEEVMTLMLTIKSGWDQLPETEKNQGYQMRQQLGEL
Binder B1 has a fold more GST-FlaJ bound than to equimolar unglycosylated FlaA of 5 fold.
